# Like-named read-outs stand apart in the source and are kept apart here.
# B1: 17α-CYP2A6 (protein)
# chain: MLASGMLLVALLVCLTVMVLMSVWQQRKSKGKLPPGPTPLPFIGNYLQLNTEQMYNSLMKISERYGPVFTIHLGPRRVVVLCGHDAVREALVDQAEEFSGRGEQATFDWVFKGYGVVFSNGERAKQLRRFSIATLRDFGVGKRGIEERIQEEAGFLIDALRGTGGANIDPTFFLSRTVSNVISSIVFGDRFDYKDKEFLSLLRMMLGIFQFTSTSTGQLYEMFSSVMKHLPGPQQQAFQLLQGLEDFIAKKVEHNQRTLDPNSPRDFIDSFLIRMQEEEKNPNTEFYLKNLVMTTLNLFIGGTETVSTTLRYGFLLLMKHPEVEAKVHEEIDRVIGKNRQPKFEDRAKMPYMEAVIHEIQRFGDVIPMSLARRVKKDTKFRDFFLPKGTEVYPMLGSVLRDPSFFSNPQDFNPQHFLNEKGQFKKSDAFVPFSIGKRNCFGEGLARMELFLFFTTVMQNFRLKSSQSPKDIDVSPKHVGFATIPRNYTMSFLPR
# B2: ompA-CYP2A6 (enzyme, human)
# chain: B1 chain
# B3: ompA(+2)-CYP2A6 (enzyme, human)
# chain: APMLASGMLLVALLVCLTVMVLMSVWQQRKSKGKLPPGPTPLPFIGNYLQLNTEQMYNSLMKISERYGPVFTIHLGPRRVVVLCGHDAVREALVDQAEEFSGRGEQATFDWVFKGYGVVFSNGERAKQLRRFSIATLRDFGVGKRGIEERIQEEAGFLIDALRGTGGANIDPTFFLSRTVSNVISSIVFGDRFDYKDKEFLSLLRMMLGIFQFTSTSTGQLYEMFSSVMKHLPGPQQQAFQLLQGLEDFIAKKVEHNQRTLDPNSPRDFIDSFLIRMQEEEKNPNTEFYLKNLVMTTLNLFIGGTETVSTTLRYGFLLLMKHPEVEAKVHEEIDRVIGKNRQPKFEDRAKMPYMEAVIHEIQRFGDVIPMSLARRVKKDTKFRDFFLPKGTEVYPMLGSVLRDPSFFSNPQDFNPQHFLNEKGQFKKSDAFVPFSIGKRNCFGEGLARMELFLFFTTVMQNFRLKSSQSPKDIDVSPKHVGFATIPRNYTMSFLPR
# B4: pelB-reductase: human P450 reductase fused at its N-terminus to the pelB leader sequence (protein)
# chain: GDSHVDTSSTVSEAVAEEVSLFSMTDMILFSLIVGLLTYWFLFRKKKEEVPEFTKIQTLTSSVRESSFVEKMKKTGRNIIVFYGSQTGTAEEFANRLSKDAHRYGMRGMSADPEEYDLADLSSLPEIDNALVVFCMATYGEGDPTDNAQDFYDWLQETDVDLSGVKFAVFGLGNKTYEHFNAMGKYVDKRLEQLGAQRIFELGLGDDDGNLEEDFITWREQFWPAVCEHFGVEATGEESSIRQYELVVHTDIDAAKVYMGEMGRLKSYENQKPPFDAKNPFLAAVTTNRKLNQGTERHLMHLELDISDSKIRYESGDHVAVYPANDSALVNQLGKILGADLDVVMSLNNLDEESNKKHPFPCPTSYRTALTYYLDITNPPRTNVLYELAQYASEPSEQELLRKMASSSGEGKELYLSWVVEARRHILAILQDCPSLRPPIDHLCELLPRLQARYYSIASSSKVHPNSVHICAVVVEYETKAGRINKGVATNWLRAKEPAGENGGRALVPMFVRKSQFRLPFKATTPVIMVGPGTGVAPFIGFIQERAWLRQQGKEVGETLLYYGCRRSDEDYLYREELAQFHRDGALTQLNVAFSREQSHKVYVQHLLKQDREHLWKLIEGGAHIYVCGDARNMARDVQNTFYDIVAELGAMEHAQAVDYIKKLMTKGRYSLDVWS
# modifications: left off: small tags and cut ends
# B5: ompA-CYP2D6 (protein)
# chain: MGLEALVPLAVIVAIFLLLVDLMHRRQRWAARYPPGPLPLPGLGNLLHVDFQNTPYCFDQLRRRFGDVFSLQLAWTPVVVLNGLAAVREALVTHGEDTADRPPVPITQILGFGPRSQGVFLARYGPAWREQRRFSVSTLRNLGLGKKSLEQWVTEEAACLCAAFANHSGRPFRPNGLLDKAVSNVIASLTCGRRFEYDDPRFLRLLDLAQEGLKEESGFLREVLNAVPVLLHIPALAGKVLRFQKAFLTQLDELLTEHRMTWDPAQPPRDLTEAFLAEMEKAKGNPESSFNDENLRIVVADLFSAGMVTTSTTLAWGLLLMILHPDVQRRVQQEIDDVIGQVRRPEMGDQAHMPYTTAVIHEVQRFGDIVPLGVTHMTSRDIEVQGFRIPKGTTLITNLSSVLKDEAVWEKPFRFHPEHFLDAQGHFVKPEAFLPFSAGRRACLGEPLARMELFLFFTSLLQHFSFSVPTGQPRPSHHGVFAFLVSPSPYELCAVPR
# What was measured:
# CYP3A4 [1] = conditions: reconstituted system, Gillam et al (1993); cited from earlier work
# CYP3A4 [2] = experiment: Testosterone 6β-hydroxylase assay, bacterial membrane fractions; format: biochemical, human; conditions: in the presence of cumene hydroperoxide, no reductase
# Target sequence in this assay (P08684 19-503 limits assumed): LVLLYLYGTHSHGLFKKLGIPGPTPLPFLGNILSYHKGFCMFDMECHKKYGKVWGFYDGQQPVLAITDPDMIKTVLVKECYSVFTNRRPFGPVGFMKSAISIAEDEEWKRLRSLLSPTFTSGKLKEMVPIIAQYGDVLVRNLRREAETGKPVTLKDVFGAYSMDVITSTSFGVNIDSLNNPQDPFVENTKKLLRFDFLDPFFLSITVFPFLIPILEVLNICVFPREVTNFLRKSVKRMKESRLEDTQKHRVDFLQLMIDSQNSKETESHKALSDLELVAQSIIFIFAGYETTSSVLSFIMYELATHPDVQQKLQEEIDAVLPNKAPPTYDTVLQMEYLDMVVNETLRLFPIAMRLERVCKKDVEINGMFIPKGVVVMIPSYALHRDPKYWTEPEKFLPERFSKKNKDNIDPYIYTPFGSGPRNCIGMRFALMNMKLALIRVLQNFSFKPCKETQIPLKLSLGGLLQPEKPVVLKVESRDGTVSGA
# Protocol: Assays were carried out with cells and membrane fractions. In both cases, approximately 100 pmol P450 was incubated with shaking in TSE containing 30 mM MgCl2. The final testosterone concentration was 0.2 mM. Where membranes were used, an NADPH generating system was is added (final concentration 1 mM NADP, 5 mM glucose-6-phosphate, 1 unit glucose-6-phosphate dehydrogenase). Reactions were carried out at 37° C. for 5 minutes, then stopped by addition of 1 ml ice-cold methanol and placed on ice for 10 minutes. Following centrifugation, supernatants were diluted with an equal volume of ice-cold water, and the testosterone metabolites extracted using Isolute C18 columns (IST Ltd), and eluted in 1 ml methanol. […] The yield of the 6β-hydroxytestosterone was calculated by reference to a standard of known concentration, and this allowed determination of the specific activity of the recombinant CYP3A4 towards testosterone.
# Direct determination of the catalytic activity of the expressed proteins was not possible due to the absence of P450 reductase in bacterial membranes. The P450 enzyme activity was therefore determined in the presence of cumene hydroperoxide which serves as an artificial oxygen donor for P450s.
# [3] = biological target: bacterial flavodoxin/NADPH-flavodoxin reductase system or another bacterial reductase; experiment: cell-based or functional assay
# [4] = biological target: T1, human P450 reductase fused at its N-terminus to the bacterial pelB leader sequence (bacterial; human) (UniProt P16435); experiment: cell-based or functional assay
# T1 sequence: B4 chain
# [5] = biological target: T1, human P450 reductase fused at its N-terminus to the bacterial pelB leader sequence (bacterial; human); experiment: cell-based or functional assay; remark: listed apart in the source
# [6] = biological target: T2, human P450 reductase fused at its N-terminus to the bacterial pelB leader sequence, P16435
# T2 chain: B4 chain
# P450 reductase [7] = experiment: Cytochrome c reductase activity of bacterial membrane fractions; conditions: membranes, expression from pCW, towards cytochrome c (FIG. 4)
# Protocol: (§1) An equal volume of ice-cold distilled water was then added. The CYP3A4 content was determined using Fe^2—CO vs Fe^2+ difference spectra by adding 50 μl whole cell suspension in 1×TSE to 950 μl 100 mM Tris. Cl (pH 7.4), 10 mM CHAPS, 20% v/v glycerol, 1 mM EDTA and reducing by adding a few grains of sodium dithionite. A baseline of zero absorbance was recorded between 500 and 400 nm, then the sample cuvette was bubbled under a steady stream of CO for about 1 minute. A spectrum was then recorded and the yield of spectrally active CYP3A4/1 culture determined. At this stage, an aliquot of whole cells was withdrawn for metabolism studies. […] The CYP3A4 and reductase content of the membranes was determined. The yield of active reductase was evaluated by a spectrophotometric assay, as follows. To 990 μl 50 μM cytochrome c in 0.3 M potassium phosphate buffer (pH 7.7), 1-10 μg membrane protein was added, and a baseline recorded. 50 μM NADPH was added and ΔA550 nm was recorded over time. To determine the P450 contents of membranes, spectra were obtained as for whole cells.
# CYP2D6 [8] = biological target: T3, CYP2D6 (Homo sapiens, UniProt P10635); format: biochemical
# T3 construct: in frame to the 5′-end of the full length P450 cDNA; made in house; host or cells: E. coli JM109, membrane fractions
# Protocol: Assays on bacterial membrane fractions were carried out at 37° C. in 50 mM potassium phosphate buffer, pH 7.4, containing 20 or 50 pmol CYP2D6, 50 μM (±)-bufuralol, and a NADPH regenerating system (see Example 1) in a total volume of 300 μl. For membranes isolated from cells carrying pCW/ompA-CYP2D6 only (ie. no reductase co-expressed), the NADPH regenerating system was replaced by 100 μM cumene hydroperoxide. Reactions were stopped by the addition of 15 μl of 60% perchloric acid and placed on ice for 5-10 min. Precipitated proteins were removed by centrifugation, and then the supernatants were analysed for 1′-hydroxybufuralol by reversed-phase HPLC, with reference to authentic standard. Separation was achieved using a Spherisorb 5 μm ODS-2 column 25 cm×4.6 mm, and a mobile phase of 0.1 M ammonium acetate (pH 5.0) with a linear gradient of acetonitrile (27 to 51% in 12 min). Detection was by fluorescence using excitation and emission wavelengths of 252 and 302 nm, respectively.
# For the determination of Michaelis-Menten kinetic parameters, incubations were carried out for 5 min with 20 pmol CYP2D6 and varying concentrations of substrate (0 to 100 μM). Km and νmax were estimated from double-reciprocal plots of initial reaction velocity versus substrate concentration.
# CYP2D6 [9] = biological target: T3, CYP2D6; experiment: Bufuralol 1′-hydroxylase assay, whole cells; format: cell-based
# Protocol: Assays on whole cells were carried out at 37° C. in 50 ml conical flasks, and contained 50 pmol CYP2D6, 50 μM (±)-bufuralol and 1×TSE buffer in a total volume of 5 ml. Samples (300 μl) were withdrawn at 0, 2, 5 and 10 min into tubes containing 15 μl of 60% perchloric acid on ice. Analysis then proceeded in an identical manner to the membrane assays (see above).
# P450 reductase [10] = biological target: T4, P450 reductase (Homo sapiens, UniProt P16435)
# T4 sequence (P16435 with tags, fused parts or gaps): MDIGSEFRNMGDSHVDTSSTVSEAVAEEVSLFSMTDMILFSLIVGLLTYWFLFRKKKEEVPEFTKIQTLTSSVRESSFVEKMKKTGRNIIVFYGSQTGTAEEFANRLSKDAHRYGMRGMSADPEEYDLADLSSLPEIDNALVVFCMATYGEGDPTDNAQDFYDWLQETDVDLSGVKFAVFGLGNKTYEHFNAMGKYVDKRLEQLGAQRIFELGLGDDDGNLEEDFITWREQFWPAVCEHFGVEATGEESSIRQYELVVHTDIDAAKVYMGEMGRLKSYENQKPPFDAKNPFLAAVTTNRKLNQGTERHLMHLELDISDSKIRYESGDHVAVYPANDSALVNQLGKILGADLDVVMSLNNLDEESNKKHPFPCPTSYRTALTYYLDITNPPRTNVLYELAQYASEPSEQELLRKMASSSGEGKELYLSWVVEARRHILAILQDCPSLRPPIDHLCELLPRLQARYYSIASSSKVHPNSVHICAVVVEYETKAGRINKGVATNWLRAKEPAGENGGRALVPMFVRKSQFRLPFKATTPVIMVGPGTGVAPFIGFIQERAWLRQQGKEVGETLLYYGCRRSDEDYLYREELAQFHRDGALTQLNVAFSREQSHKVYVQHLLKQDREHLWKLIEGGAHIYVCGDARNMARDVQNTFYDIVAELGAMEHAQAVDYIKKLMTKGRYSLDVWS
# Protocol: as §1
molecule,measurement,setting,value
"bacterially-expressed CYP3A4: reconstituted system containing bacterially-expressed CYP3A4, Gillam et al (1993)","turnover rates, testosterone 6β-hydroxylation",CYP3A4 [1],up to 10 nmol 6β-hydroxytestosterone/minute/nmol P450
ompA-CYP3A4: CYP3A4 fused at its N-terminus to the bacterial ompA leader sequence,turnover number for the 6β-hydroxylation of testosterone,CYP3A4 [2],3.2 min⁻¹
17α-CYP3A4 (optimised CYP3A4 expressed from NF14 / pB216) (from UniProt P08684 1-503) (enzyme),"testosterone 6β-hydroxylase turnover, JM109 NF14 whole cells (CYP3A4 alone)",[3],< 0.5 min⁻¹
same,"nifedipine oxidase turnover, JM109 pB216 whole cells",[4],15.2 min^-1
same,"testosterone 6β-hydroxylase turnover, JM109 pB216 whole cells",[4],17.3 min^-1
B1,"coumarin 7-hydroxylase activity, shocked cells (nmol/min/nmol P450)",[4],0.75
B2,"coumarin 7-hydroxylase activity, shocked cells (nmol/min/nmol P450)",[5],< 0.02
B3,"coumarin 7-hydroxylase activity, membranes",[6],1
same,"coumarin 7-hydroxylase activity, shocked cells (nmol/min/nmol P450)",[5],0.29
B4,reductase activity compared to the native P450 reductase,P450 reductase [7],almost ten fold higher
B5,CYP2D6-dependent activities on co-expression,[6],"couples well with co-expressed reductase, catalysing typical CYP2D6-dependent activities"
same,"Vmax of bufuralol 1'-hydroxylation, membranes co-expressing both",[6],13.3 min⁻¹
same,bufuralol 1'-hydroxylase specific activity,[6],1.2 nmoles/min/mg membrane protein
same,"bufuralol 1'-hydroxylation turnover number, intact bacteria",[6],turnover numbers of 4.6 min^-1 and 5.7 min^-1 respectively
same,"bufuralol 1'-hydroxylation turnover number, membranes",[6],turnover numbers of 4.6 min^-1 and 5.7 min^-1 respectively
same,Km,CYP2D6 [8],11.1 µM
same,"Vmax, bufuralol 1′-hydroxylation",CYP2D6 [8],13.3 min⁻¹
same,"specific activity, bufuralol hydroxylation",CYP2D6 [8],1.2 nmoles/min/mg membrane protein
same,"specific activity, fold higher than the value reported for human liver microsomes",CYP2D6 [8],40 fold
same,"bufuralol 1′-hydroxylase activity, intact E. coli",CYP2D6 [9],1.2 nmoles/min/mg protein
same,"turnover number, bufuralol hydroxylation, intact bacteria","CYP2D6 [9]; co-expressed with pelB-reductase, 50 μM bufuralol, no added NADPH",4.6 min⁻¹
same,"bufuralol 1′-hydroxylase activity, fold higher than average of a panel of human liver microsomes",CYP2D6 [9]; intact E. coli,about 20 fold
same,cytochrome c reductase activity,P450 reductase [10],530 nmol/min/mg
